B1: IPMS (G462D): feedback insensitive mutant of isopropylmalate synthase (leuA gene product) (protein, UniProt P09151 2-523, looked up, variant G462D)
2-isopropylmalate synthase: SQQVIIFDTTLRDGEQALQASLSVKEKLQIALALERMGVDVMEVGFPVSSPGDFESVQTIARQVKNSRVCALARCVEKDIDVAAESLKVAEAFRIHTFIATSPMHIATKLRSTLDEVIERAIYMVKRARNYTDDVEFSCEDAGRTPIADLARVVEAAINAGATTINIPDTVGYTMPFEFAGIISGLYERVPNIDKAIISVHTHDDLGLAVGNSLAAVHAGARQVEGAMNGIGERAGNCSLEEVIMAIKVRKDILNVHTAINHQEIWRTSQLVSQICNMPIPANKAIVGSGAFAHSSGIHQDGVLKNRENYEIMTPESIGLNQIQLNLTSRSGRAAVKHRMDEMGYKESEYNLDNLYDAFLKLADKKGQVFDYDLEALAFIGKQQEEPEHFRLDYFSVQSGSNDIATAAVKLACGEEVKAEAANGNGPVDAVYQAINRITEYNVELVKYSLTAKGHGKDALDQVDIVANYNGRRFHGVGLATDIVESSAKAMVHVLNNIWRAAEVEKELQRKAQHNENNKETV
B2: WT IPMS: wild-type isopropylmalate synthase, the E. coli leuA gene product (protein, UniProt P09151 2-523, looked up)
2-isopropylmalate synthase: SQQVIIFDTTLRDGEQALQASLSVKEKLQIALALERMGVDVMEVGFPVSSPGDFESVQTIARQVKNSRVCALARCVEKDIDVAAESLKVAEAFRIHTFIATSPMHIATKLRSTLDEVIERAIYMVKRARNYTDDVEFSCEDAGRTPIADLARVVEAAINAGATTINIPDTVGYTMPFEFAGIISGLYERVPNIDKAIISVHTHDDLGLAVGNSLAAVHAGARQVEGAMNGIGERAGNCSLEEVIMAIKVRKDILNVHTAINHQEIWRTSQLVSQICNMPIPANKAIVGSGAFAHSSGIHQDGVLKNRENYEIMTPESIGLNQIQLNLTSRSGRAAVKHRMDEMGYKESEYNLDNLYDAFLKLADKKGQVFDYDLEALAFIGKQQEEPEHFRLDYFSVQSGSNDIATAAVKLACGEEVKAEAANGNGPVDAVYQAINRITEYNVELVKYSLTAKGHGKDALGQVDIVANYNGRRFHGVGLATDIVESSAKAMVHVLNNIWRAAEVEKELQRKAQHNENNKETV
B3: WT: wild-type citramalate synthase CimA from M. jannaschii (SEQ ID NO:89) (protein, listed as Methanocaldococcus jannaschii)
chain: MMVRIFDTTLRDGEQTPGVSLTPNDKLEIAKKLDELGVDVIEAGSAITSKGEREGIKLITKEGLNAEICSFVRALPVDIDAALECDVDSVHLVVPTSPIHMKYKLRKTEDEVLETALKAVEYAKEHGLIVELSAEDATRSDVNFLIKLFNEGEKVGADRVCVCDTVGVLTPQKSQELFKKITENVNLPVSVHCHNDFGMATANTCSAVLGGAVQCHVTVNGIGERAGNASLEEVVAALKILYGYDTKIKMEKLYEVSRIVSRLMKLPVPPNKAIVGDNAFAHEAGIHVDGLIKNTETYEPIKPEMVGNRRRIILGKHSGRKALKYKLDLMGINVSDEQLNKIYERVKEFGDLGKYISDADLLAIVREVTGKLVEEKIKLDELTVVSGNKITPIASVKLHYKGEDITLIETAYGVGPVDAAINAVRKAISGVADIKLVEYRVEAIGGGTDALIEVVVKLRKGTEIVEVRKSDADIIRASVDAVMEGINMLLN
B4: CimA1: CimA variant with three amino acid substitutions (Ile47Val, Lys435Asn, Val441Ala) (protein, UniProt Q58787 1-491, looked up, variant I47V K435N V441A)
(R)-citramalate synthase CimA: MMVRIFDTTLRDGEQTPGVSLTPNDKLEIAKKLDELGVDVIEAGSAVTSKGEREGIKLITKEGLNAEICSFVRALPVDIDAALECDVDSVHLVVPTSPIHMKYKLRKTEDEVLETALKAVEYAKEHGLIVELSAEDATRSDVNFLIKLFNEGEKVGADRVCVCDTVGVLTPQKSQELFKKITENVNLPVSVHCHNDFGMATANTCSAVLGGAVQCHVTVNGIGERAGNASLEEVVAALKILYGYDTKIKMEKLYEVSRIVSRLMKLPVPPNKAIVGDNAFAHEAGIHVDGLIKNTETYEPIKPEMVGNRRRIILGKHSGRKALKYKLDLMGINVSDEQLNKIYERVKEFGDLGKYISDADLLAIVREVTGKLVEEKIKLDELTVVSGNKITPIASVKLHYKGEDITLIETAYGVGPVDAAINAVRKAISGVADINLVEYRAEAIGGGTDALIEVVVKLRKGTEIVEVRKSDADIIRASVDAVMEGINMLLN

Legend:
[1] = system: wild-type E. coli strain (JCL16); assay: isobutanol tolerance of E. coli
Source text: Non-native hosts such as E. coli lack tolerance to high alcohols. Isobutanol is as toxic as 1-butanol to microorganisms, and the native 1-butanol producers can tolerate 1-butanol concentration up to about 2%. To show the potential for improving tolerance, in vitro evolution by the sequential transfer of cultures was used to enrich for strains with mutations which increase isobutanol tolerance. […] Other strategies such as gTME can be used for further improvement of tolerance.

JCL260 [2] = assay type: cell-based, E. coli; conditions: for 3-methyl-1-butanol final titer / isobutanol accumulation: ilvE+ tyrB+ background
Method: Final production experiments were conducted as previously described, except that 20 mL modified M9 media containing 5 g/L of glucose was used in a 250 mL screw cap flask.
Metabolite Detections. The produced alcohol compounds were quantified by a gas chromatograph (GC) equipped with flame ionization detector. The system consisted of model 5890A GC (Hewlett-Packard, Avondale, Pa.) and a model 7673A automatic injector, sampler and controller (Hewlett-Packard). Supernatant of culture broth ([…]) was injected in split injection mode (1:15 split ratio) using methanol as the internal standard.
The separation of alcohol compounds was carried out by A DB-WAX capillary column (30 m, 0.32 mm-i.d., 0.50 μm-film thickness) purchased from Agilent Technologies (Santa. Clara, Calif.). GC oven temperature was initially held at 40° C. for 5 min and raised with a gradient of 15° C./min until 120° C. It was then raised with a gradient 50° C./min until 230° C. and held for 4 min. Helium was used as the carrier gas with 9.3 psi inlet pressure. The injector and detector were maintained at 225° C. 0.5 ul supernatant of culture broth was injected in split injection mode with a 1:15 split ratio. Methanol was used as the internal standard.

JCL260 [3] = assay: α-keto acid production with IPMS variants; assay type: cell-based, E. coli
Method: All α-keto acid experiments were done under oxygen ‘rich’ conditions unless otherwise noted. For oxygen rich experiments, 10 mL cultures in 250 mL baffled shake flasks were inoculated 1% from 3 mL overnight cultures in LB. For oxygen poor experiments, 10 mL cultures were inoculated in 125 mL screw caps as previously described. All cultures were grown at 37° C. for 4 hours and induced with 1 mM IPTG and harvested after 18 hrs of growth at 30° C.
For other secreted metabolites, filtered supernatant was applied (20 ul) to an Agilent 1100 HPLC equipped with an auto-sampler (Agilent Technologies) and a BioRad (Biorad Laboratories, Hercules, Calif.) Aminex HPX87 column (5 mM H2SO4, 0.6 ml/min, column temperature at 65° C.). Glucose was detected with a refractive index detector, while organic acids were detected using a photodiode array detector at 210 nm. Concentrations were determined by extrapolation from standard curves.
In order to investigate this hypothesis, the production of the α-keto acid precursors, the substrates for kivd, to isobutanol and 3-methyl-1-butanol were examined. […] In hopes of increasing the KIC pool, the expression level of leuA was increased by changing the RBS from its native sequence to a more consensus sequence.
Isopropylmalate synthase (IPMS) catalyzes the condensation of KIV with acetyl-CoA. […] To relieve the feedback inhibition of the leuA gene product, two strategies were employed. A feedback insensitive mutant of IPMS (IPMS (G462D)) was employed. Second, the final step in the L-leucine synthesis pathway was inactivated by deleting ilvE (branched-chain amino acid transferase) and tyrB (tyrosine aminotransferase), two isozymes responsible for converting α-ketoisocaproate into L-leucine.

KS145 [4] = assay: 1-Propanol and 1-butanol production with the selected CimA mutants (citramalate pathway); assay type: cell-based, E. coli; conditions: 30° C. for 40 h; for Production of 1-Butanol / Production of 1-Propanol: KS145 with pSA55 and pSA63 (cimA-leuABCD) or its variations; for 1-Butanol change (fold) relative to the strain containing wild-type CimA / 1-Propanol change (fold) relative to the strain containing wild-type CimA: KS145 with pSA55 and pSA63 variations
Method: Medium and cultivation for 1-propanol and 1-butanol production. M9 medium containing 36 g/L glucose, 5 g/L yeast extract, 100 μg/ml ampicillin, 30 μg/ml kanamycin and 1000th dilution of Trace Metal Mix A5 (2.86 g H3BO3, 1.81 g MnCl2.4H2O, 0.222 g ZnSO4.7H2O, 0.39 g Na2MoO4.2H2O, 0.079 g CuSO4.5H2O, 49.4 mg Co(NO3)2.6H2O per liter water) was used for cell growth. Preculture in test tubes containing 3 ml of medium was performed at 37° C. overnight on a rotary shaker (250 rpm). Overnight culture was diluted 1:100 into 20 ml of fresh medium in a 250 ml screw cap conical flask. Cells were grown at 37° C. for 3 hr, followed by adding 0.1 mM IPTG. Cultivation was performed at 30° C. on a rotary shaker (250 rpm). Gas chromatography-flame ionization detector and high-performance liquid chromatography analyses were performed.
The citramalate pathway was then used to enhance the production of 1-propanol and 1-butanol (FIG. 13). An E. coli strain (KS145) auxotrophic for L-isoleucine, leucine, and valine (ΔilvI and ΔilvB). was transformed with pSA63 (or other plasmids containing variants of cimA) and pSA55 (PLlacO1::kivd-ADH2). The deletions of ilvI and ilvB (FIG. 13) were introduced for two reasons. First, the deletions eliminated the native substrate, 2-ketoisovalerate, for the leuABCD pathway, thus reducing the competitive substrate inhibition. Second, these deletions eliminated the production of 2-keto-3-methyl-valerate and 2-keto-4-methyl-pentanoate, which are competing substrates for Kivd. The strain expressing the wild-type cimA gene (KS145/pSA63/pSA55) produced 302 mg/liter 1-propanol and 18 mg/liter 1-butanol after 40 h (FIG. 60). KS145 with pSA55 only, where Kivd utilizes endogenous 2-keto acids, produced 40 mg/liter 1-propanol and 10 mg/liter 1-butanol under the same condition. KS145 without pSA55 and pSA63 produced neither 1-propanol nor 1-butanol (FIG. 60). Note that the yeast extract was added to the medium to boost the cell density.
1-Propanol and 1-butanol production was tested with the selected CimA variants in KS145 by replacing pSA63 with corresponding plasmids (Table 19) containing various cimA mutants. […] The production of 1-propanol and 1-butanol from the strain with CimA2 increased 3.9- and 4.3-fold, respectively, compared to the strain with the wild-type CimA.

KS145 [5] = assay: as above; assay type: cell-based, E. coli; conditions: ΔilvI ΔilvB strain with pSA63 and pSA55, after 64 hr

Row | Molecule | 3-methyl-1-butanol final titer (JCL260 [2]) | isobutanol accumulation (JCL260 [2]) | KIC production (JCL260 [3]; ΔilvE background) | KIC production (JCL260 [3]; ΔilvE ΔtyrB background) | Production of 1-Butanol (KS145 [4]) | Production of 1-Propanol (KS145 [4]) | 1-Butanol change (fold) relative to the strain containing wild-type CimA (KS145 [4]) | 1-Propanol change (fold) relative to the strain containing wild-type CimA (KS145 [4]) | other results
1 | CC(C)CO [isobutanol] |  |  |  |  |  |  |  |  | isobutanol concentration that inhibited the strain [1]: 1.5%; isobutanol concentration in the presence of which mutants grow ([1]; mutants after 5 rounds of culture transfers with increasing isobutanol concentrations): 2%
2 | B1 | 459 mg/L | 15 mg/L | 2.31 g/L | 1.95 g/L |  |  |  |  | KIC final concentration (JCL260 [3]): 1.61 g/L; KIV accumulation (JCL260 [3]; JCL260 background, ilvE+ tyrB+): 0.17 g/L
3 | B2 | 308 mg/L | 169 mg/L | 0.53 g/L | 1.23 g/L |  |  |  |  | 3-methyl-1-butanol final concentration (JCL260 [2]; ΔilvE ΔtyrB strain): 553 mg/L; isobutanol (JCL260 [2]; ΔilvE ΔtyrB strain): 42 mg/L; KIV final concentration (JCL260 [3]; ΔilvE background): 0.40 g/L; KIV final concentration (JCL260 [3]; ΔilvE ΔtyrB background): 0.37 g/L
4 | B3 |  |  |  |  | 18 mg/L | 302 mg/L | 1 fold | 1 fold | 1-butanol produced (KS145 [5]): about 21 mg/L; 1-propanol produced (KS145 [5]): about 350 mg/L
5 | B4 |  |  |  |  | 22 mg/L | 695 mg/L | 1.2 fold | 2.3 fold | 

— patent US9695426B2, “Biofuel production by recombinant microorganisms” (The Regents of the University of California, priority 2007, dated 2017)
